Patent US20090299038A1 (LIVTECH, published 2009)
Values joined by “and” are separate entries in the source; they are usually repeats but may differ in a detail not shown here. Identical values can stand only once.

T1: purified recombinant hFA-1 protein (hDlk-1 extracellular region) (human, UniProt P80370 24-303)
T1 construct: also called human FA1; FA-1 region of hDlk-1; not shown: C-terminal Myc tag and His tag from the pcDNA4/Myc-His vector
T1 sequence: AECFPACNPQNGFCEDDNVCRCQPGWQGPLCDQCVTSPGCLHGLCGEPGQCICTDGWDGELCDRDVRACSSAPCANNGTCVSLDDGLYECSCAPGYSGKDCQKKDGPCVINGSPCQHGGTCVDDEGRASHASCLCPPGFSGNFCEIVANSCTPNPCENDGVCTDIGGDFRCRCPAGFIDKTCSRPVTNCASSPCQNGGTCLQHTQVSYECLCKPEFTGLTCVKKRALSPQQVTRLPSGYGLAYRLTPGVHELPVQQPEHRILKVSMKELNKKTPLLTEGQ

T2: hDlk-1 EGF-like motif deletion mutant EGF (5-6) expressed on COS-7 cells (human, UniProt P80370 170-245)
T2 construct: also called hDlk-1 (EGF 5-6)-pME18-CHFX
T2 sequence: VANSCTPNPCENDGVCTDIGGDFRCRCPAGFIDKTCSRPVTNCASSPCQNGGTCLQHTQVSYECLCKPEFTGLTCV

T3: hDlk-1 EGF-like motif deletion mutant EGF (4-6) expressed on COS-7 cells (human, UniProt P80370 131-244)
T3 construct: also called hdlk-EGF (4-6)/pME18S-CFHX
T3 sequence: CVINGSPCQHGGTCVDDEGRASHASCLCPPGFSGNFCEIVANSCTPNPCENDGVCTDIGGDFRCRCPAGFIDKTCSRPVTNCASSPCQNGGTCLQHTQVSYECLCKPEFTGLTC


Assays:
[1] = target: T1, purified recombinant hFA-1 protein …; assay: ELISA, antibody dilution series on immobilised hFA-1
[2] = target: T1, purified recombinant hFA-1 protein …; assay: ELISA method (Djavadi-Ohaniance): antibody 0.5 nM equilibrated with hFA-1 in solution, then added to immobilised hFA-1
[3] = target: T2, hDlk-1 EGF-like motif deletion mutant …; assay: FACS of transfected COS-7 cells
[4] = target: T3, hDlk-1 EGF-like motif deletion mutant …; assay: FACS of transfected COS-7 cells

| Binder | EC50 [1] [µg/mL] | Kd [2] | binding result [3] | binding result [4] |
| --- | --- | --- | --- | --- |
| mouse anti-hDlk-1 monoclonal antibody clone DI-2-14 (antibody, V domains shown, also called mouse DI-2-14 antibody; clone DI-2-14 (mouse IgG1)) VH: EVQLQQSGAELVKPGASVKLSCTASGFNIRDTYIHWVKQRPEQGLEWIGRIDPPNGNLKYDPKFQGKATITADTSSNTAYLQFSSLTSEDTAVYYCARSDGYSFAYWGQGTLVTVSA VL: DIVMTQAAPSVPVTPGESVSISCRSSKSLLHSNGNTYLYWFLQRPGQSPQLLIYRMSNLASGVPDRFSGSGSGTAFTLRISRVEAEDVGVYYCMQHVEYPFTFGSGTKLEIK | < 0.01 | 4.02 nM and 9.26 nM | no binding | no binding |
| humanized anti-hDlk-1 monoclonal antibody HuDI-2-14-1 (antibody, V domains shown, also called HuDI-2-14-1 IgG1/κ) VH: QVQLVQSGAEVKKPGSSVKVSCKASGFNIRDTYIHWVRQAPGQGLEWIGRIDPPNGNLKYDPKFQGKATITADTSTSTAYMEFSSLRSEDTAVYYCARSDGYSFAYWGQGTLVTVSS VL: DIVMTQSPLSLPVTPGEPASISCRSSKSLLHSNGNTYLYWFLQKPGQSPQLLIYRMSNLASGVPDRFSGSGSGTAFTLKISRVEAEDVGVYYCMQHVEYPFTFGQGTKVEIK | < 0.01 | 2.8 nM |  |  |
| mouse-human chimeric DI-2-14 antibody (ChDI-2-14) (antibody, V domains shown, also called DI-2-14 IgG1/κ) VH: EVQLQQSGAELVKPGASVKLSCTASGFNIRDTYIHWVKQRPEQGLEWIGRIDPPNGNLKYDPKFQGKATITADTSSNTAYLQFSSLTSEDTAVYYCARSDGYSFAYWGQGTLVTVSA VL: DIVMTQAAPSVPVTPGESVSISCRSSKSLLHSNGNTYLYWFLQRPGQSPQLLIYRMSNLASGVPDRFSGSGSGTAFTLRISRVEAEDVGVYYCMQHVEYPFTFGSGTKLEIK | < 0.01 | 3.4 nM |  |  |
| humanized anti-hDlk-1 monoclonal antibody HuDI-2-14-2 (antibody, V domains shown, also called HuDI-2-14-2 IgG1/κ) VH: QVQLVQSGAEVKKPGSSVKVSCKASGFNIRDTYIHWVRQAPGQGLEWIGRIDPPNGNLKYDPKFQGKATITADTSTSTAYMELSSLRSEDTAVYYCARSDGYSFAYWGQGTLVTVSS VL: DIVMTQSPLSLPVTPGEPASISCRSSKSLLHSNGNTYLYWFLQKPGQSPQLLIYRMSNLASGVPDRFSGSGSGTAFTLKISRVEAEDVGVYYCMQHVEYPFTFGQGTKVEIK | < 0.01 | 3.1 nM |  |  |
